Experimental findings from article PMC4416881, “Regulation of Active DNA Demethylation by a Methyl-CpG-Binding Domain Protein in Arabidopsis thaliana” (PLoS Genetics, 2015) are described below.

The chains are these.
B1: MBP-IDM2 (natural protein, Arabidopsis thaliana, UniProt Q8RWL4 1-349, looked up)
chain: MSDTMPEIVSPLVAENSQEQEESVLISLDIEEDKLFLLHFIIGTYFGPDLRKQHHRPKQSAFQIQALKNVVVDELSGSLMKRAELERVYYHIIRNVDPSLVMKPKKLREYFNAKRNDSNRDYPLFVDLFPRKLHPETHVRHKFKFIRSIVFINDPDTSCMREECVARFKRLTGLDSFALSLSVDVTKSNGVVAANEVKVEIDESVEPVKEDNAGTCTSGEESDVAAKPEVKSEAHGGLMVGLMDIGECDDAYLFRVSLPGVKRDERYFSCEVEDNGKVLVRGVTTTGGKRVKRYSHVFEMQTRSLCPPGNFSVSFRLPGPVHPHEFSGNFGTDGILEGVVMKNLQKQTV
notes: IDM2, Arabidopsis thaliana, AT1G54840; source: E. coli, fixed to an amylose resin; not shown: MBP, N-terminal, kept
B2: His-MBD7 (natural protein, Arabidopsis thaliana, UniProt Q9FJF4 1-306, looked up)
chain: MQTRSSSSPSANHRRETQLQIADPTSFCGKIMPGWTVVNRPRSSNNGVVDTYFIEPGTGRQFSSLEAIHRHLAGEVNDRRLTRAGSFFQDKTRVYEGSRTKQDHCGVEYASKGFRLPRGWSVEEVPRKNSHYIDKYYVERKTGKRFRSLVSVERYLRESRNSIEQQLRVLQNRRGHSKDFRLPDGWIVEEKPRRSSSHIDRSYIEPGTGNKFRSMAAVERYLISVGNITLDSVSMVHSERLPLLMNRNGIRFQSEVIDPNPPKKVKWVLTGSGGNMFTANVRGSNVSSLVKHTWSEAFVSLIEDRS
notes: MBD7, Arabidopsis thaliana, AT5G59800; detected with antibodies against the His6 tag; also called His-tagged MBD7; source: E. coli, purified; not shown: His6, N-terminal, kept

What all share (test): pull-down; MBP fusion from E. coli fixed to amylose resin, incubated with His-tagged protein purified from E. coli; immunoblot against His6 tag
Conditions in all cases: both partners purified

In test [1] the target is T1, His-IDL1 (Arabidopsis thaliana, UniProt Q9SYQ0 1-463).
T1 construct: IDL1, Arabidopsis thaliana, AT1G20870; detected with antibodies against the His6 tag; also called His-tagged IDL1; source: E. coli, purified; not shown: His6, N-terminal, kept
T1 sequence (looked up): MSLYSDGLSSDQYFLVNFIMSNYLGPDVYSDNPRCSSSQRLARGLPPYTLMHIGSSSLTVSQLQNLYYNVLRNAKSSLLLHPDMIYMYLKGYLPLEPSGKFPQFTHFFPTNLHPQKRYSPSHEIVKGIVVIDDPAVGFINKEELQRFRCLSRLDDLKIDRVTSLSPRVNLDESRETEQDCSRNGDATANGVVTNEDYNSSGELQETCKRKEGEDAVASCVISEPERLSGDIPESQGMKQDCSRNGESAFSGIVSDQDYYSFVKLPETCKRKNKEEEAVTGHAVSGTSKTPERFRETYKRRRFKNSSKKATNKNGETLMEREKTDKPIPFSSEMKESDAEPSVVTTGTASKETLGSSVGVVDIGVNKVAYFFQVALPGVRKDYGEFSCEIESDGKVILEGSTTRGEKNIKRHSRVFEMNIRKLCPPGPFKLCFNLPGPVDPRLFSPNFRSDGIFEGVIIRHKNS

Test [2] has as its target T2, MBP-IDL1 (Arabidopsis thaliana, UniProt Q9SYQ0 1-463).
T2 construct: IDL1, Arabidopsis thaliana, AT1G20870; source: E. coli, fixed to an amylose resin; not shown: MBP, N-terminal, kept
T2 sequence (looked up): T1 sequence (looked up)

Test [3] deals with B1.

For the molecule B1, the binding result in test [1] is “binds”.
Turning to B2, the binding result in test [2] and in test [3] was “binds” each time.
